Experimental data: paper PMC6864063

Molecular target: His-SUMO-tagged SH3 domain of c-Src (UniProt P12931)
Assay: pull-down; His-SUMO-c-Src-SH3 as bait on Ni2+ beads, cleaved ChoKα constructs as probes; equimolar (1:1, 25 µM); 200 mM KCl, 30 mM imidazole pH 8.5, 25 mM Tris pH 8.5, 10 mM MgCl2; three washes; SDS-PAGE, Coomassie; band intensities by ImageJ

Sequence of Choline kinase alpha Δ49 P(72,73)A (P35790 other isoform, or with tags, fused parts or gaps mutant): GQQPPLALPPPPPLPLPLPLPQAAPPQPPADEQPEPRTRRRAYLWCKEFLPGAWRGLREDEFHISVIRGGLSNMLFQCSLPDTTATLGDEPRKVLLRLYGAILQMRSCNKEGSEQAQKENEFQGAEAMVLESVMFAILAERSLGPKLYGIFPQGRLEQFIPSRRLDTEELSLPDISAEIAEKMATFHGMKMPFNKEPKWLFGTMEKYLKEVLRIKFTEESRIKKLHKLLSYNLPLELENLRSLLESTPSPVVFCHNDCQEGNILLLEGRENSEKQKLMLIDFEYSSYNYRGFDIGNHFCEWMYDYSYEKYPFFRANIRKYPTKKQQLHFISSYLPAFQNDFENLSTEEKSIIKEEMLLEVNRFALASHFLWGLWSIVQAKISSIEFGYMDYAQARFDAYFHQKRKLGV
Sequence of Choline kinase alpha Δ49 P(61,62)A (P35790 other isoform, or with tags, fused parts or gaps mutant): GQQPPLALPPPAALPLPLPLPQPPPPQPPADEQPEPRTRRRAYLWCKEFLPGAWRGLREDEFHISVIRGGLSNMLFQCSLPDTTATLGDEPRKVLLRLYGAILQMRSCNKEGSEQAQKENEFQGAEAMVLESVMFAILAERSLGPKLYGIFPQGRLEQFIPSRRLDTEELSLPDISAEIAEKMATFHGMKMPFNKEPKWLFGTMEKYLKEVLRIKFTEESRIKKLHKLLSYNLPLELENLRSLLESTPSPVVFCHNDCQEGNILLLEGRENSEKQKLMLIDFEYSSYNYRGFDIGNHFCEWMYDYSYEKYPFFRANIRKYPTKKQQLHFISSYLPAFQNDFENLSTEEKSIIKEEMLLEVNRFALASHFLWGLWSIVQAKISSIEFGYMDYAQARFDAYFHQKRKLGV
Sequence of Choline kinase alpha Δ49, wild type (P35790 50-457, stated change not applied): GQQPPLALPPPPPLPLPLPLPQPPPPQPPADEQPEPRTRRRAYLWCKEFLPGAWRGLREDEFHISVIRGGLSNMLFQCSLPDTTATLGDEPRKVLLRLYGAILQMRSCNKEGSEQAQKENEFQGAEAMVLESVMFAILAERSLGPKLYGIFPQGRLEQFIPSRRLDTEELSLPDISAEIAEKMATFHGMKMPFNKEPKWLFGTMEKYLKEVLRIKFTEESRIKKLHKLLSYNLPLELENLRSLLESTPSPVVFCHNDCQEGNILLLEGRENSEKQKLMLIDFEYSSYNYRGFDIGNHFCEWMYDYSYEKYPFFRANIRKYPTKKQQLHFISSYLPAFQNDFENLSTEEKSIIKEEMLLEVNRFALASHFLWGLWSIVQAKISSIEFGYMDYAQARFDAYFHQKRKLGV
Sequence of Choline kinase alpha Δ49 P(59,60)A (P35790 other isoform, or with tags, fused parts or gaps mutant): as the sequence (P35790 50-457, stated change not applied) above, with P10A, P11A counted along it

| Substance | ratio of the ChoKα band intensity to the His-SUMO-cSrcSH3 band intensity |
| --- | --- |
| Choline kinase alpha Δ49 P(59,60)A (from UniProt P35790 50-457) (domain or fragment) | 0.7 |
| Choline kinase alpha Δ49 P(61,62)A (from UniProt P35790 50-457) (domain or fragment) | 0.2 |
| Choline kinase alpha Δ49 P(72,73)A (from UniProt P35790 50-457) (domain or fragment) | 0.88 |
| Choline kinase alpha Δ49, wild type (from UniProt P35790 50-457) (domain or fragment) | 0.69 |
